Measured values from paper PMC5681435, “Differential Regulation of G1 CDK Complexes by the Hsp90-Cdc37 Chaperone System” (Cell Reports, 2017).
Changes are numbered by the printed parent chain. Names may count otherwise.

T1: biotinylated C-terminally Avi-tagged Cdc37 (human, UniProt Q16543 1-378, biotin (on the Avi tag))
T1 construct: not shown: Avi tag, C-terminal, kept
T1 sequence (looked up): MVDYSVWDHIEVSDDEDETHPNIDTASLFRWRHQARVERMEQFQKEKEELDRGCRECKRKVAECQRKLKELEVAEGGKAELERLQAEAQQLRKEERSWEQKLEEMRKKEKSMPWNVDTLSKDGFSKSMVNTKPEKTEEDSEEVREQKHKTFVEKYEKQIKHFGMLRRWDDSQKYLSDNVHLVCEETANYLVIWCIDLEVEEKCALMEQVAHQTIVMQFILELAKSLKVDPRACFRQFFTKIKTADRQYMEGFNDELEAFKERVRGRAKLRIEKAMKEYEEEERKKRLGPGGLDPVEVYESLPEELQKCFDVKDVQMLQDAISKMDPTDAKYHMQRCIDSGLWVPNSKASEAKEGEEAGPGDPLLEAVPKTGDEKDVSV

B1: untagged p16INK4a (natural protein, UniProt P42771 1-156, looked up)
chain: MEPAAGSSMEPSADWLATAAARGRVEEVRALLEAGALPNAPNSYGRRPIQVMMMGSARVAELLLLHGAEPNCADPATLTRPVHDAAREGFLDTLVVLHRAGARLDVRDAWGRLPVDLAEELGHRDVARYLRAAAGGTRGSNHARIDAAEGPSDIPD
notes: also called wild-type p16INK4a; authentic p16INK4a
B2: p16M53I (natural protein, UniProt P42771 1-156, looked up)
chain: B1 chain with M53I
notes: also called p16INK4a M53I
B3: p16M53E (natural protein, UniProt P42771 1-156, looked up)
chain: B1 chain with M53E
notes: also called p16INK4a M53E
B4: p16D108N (natural protein, UniProt P42771 1-156, looked up)
chain: B1 chain with D108N
notes: also called p16INK4a D108N
B5: p16D84N (natural protein, UniProt P42771 1-156, looked up)
chain: B1 chain with D84N
notes: also called p16INK4a D84N
B6: GSTCDK4 (enzyme, human, UniProt P11802 1-303, looked up)
chain: MATSRYEPVAEIGVGAYGTVYKARDPHSGHFVALKSVRVPNGGGGGGGLPISTVREVALLRRLEAFEHPNVVRLMDVCATSRTDREIKVTLVFEHVDQDLRTYLDKAPPPGLPAETIKDLMRQFLRGLDFLHANCIVHRDLKPENILVTSGGTVKLADFGLARIYSYQMALTPVVVTLWYRAPEVLLQSTYATPVDMWSVGCIFAEMFRRKPLFCGNSEADQLGKIFDLIGLPPEDDWPRDVSLPRGAFPPRGPRPVQSVVPEMEESGAQLLLEMLTFNPHKRISAFRALQHSYLHKDEGNPE
notes: also called GST-tagged CDK4
B7: Avi-tagged Kcyclin (natural protein)
chain: MATANNPPSGLLDPTLCEDRIFYNILEIEPRFLTSDSVFGTFQQSLTSHMRKLLGTWMFSVCQEYNLEPNVVALALNLLDRLLLIKQVSKEHFQKTGSACLLVASKLRSLTPISTSSLCYAAADSFSRQELIDQEKELLEKLAWRTEAVLATDVTSFLLLKLLGGSQHLDFWHHEVNTLITKALVDPKTGSLPASIISAAGCALLVPANVIPQDTHSGGVVPQLASILGCDVSVLQAAVEQILTSVSDFDLRILDSY
modifications: biotin (on the Avi tag)
notes: also called viral D-type cyclin from Kaposi's sarcoma-associated herpesvirus; source: purified
B8: Vcyclin (Avi-tagged, for direct HTRF) (natural protein)
chain: MADSPNRLNRAKIDSTTMKDPRVLNNLKLRELLLPKFTSLWEIQTEVTVDNRTILLTWMHLLCESFELDKSVFPLSVSILDRYLCKKQGTKKTLQKIGAACVLIGSKIRTVKPMTVSKLTYLSCDCFTNLELINQEKDILEALKWDTEAVLATDFLIPLCNALKIPEDLWPQLYEAASTTICKALIQPNIALLSPGLICAGGLLTTIETDNTNCRPWTCYLEDLSSILNFSTNTVRTVKDQVSEAFSLYDLEIL
modifications: biotin (on the Avi tag)
notes: also called viral D-type cyclin from Herpesvirus saimiri; source: purified

What was measured:
Conditions in all cases: both partners purified
[1] = target: B6; experiment: SPR
[2] = target: T2, GSTCDK6 (human, UniProt Q00534 1-326); experiment: SPR
T2 construct: also called GST-tagged CDK6

[3] = target: B6; experiment: SPR; remark: listed apart in the source
[4] = target: T2, GSTCDK6; experiment: SPR; remark: listed apart in the source
[5] = target: T1, biotinylated C-terminally Avi-tagged …; experiment: AlphaScreen or HTRF; direct binding: GST-fused CDK (10 nM) and biotinylated Avi-tagged partner titrated; terbium-conjugated anti-GST antibody and streptavidin-XL665
[6] = target: B6; experiment: as above
[7] = target: T2, GSTCDK6; experiment: as above

T2 sequence (Q00534 whole entry): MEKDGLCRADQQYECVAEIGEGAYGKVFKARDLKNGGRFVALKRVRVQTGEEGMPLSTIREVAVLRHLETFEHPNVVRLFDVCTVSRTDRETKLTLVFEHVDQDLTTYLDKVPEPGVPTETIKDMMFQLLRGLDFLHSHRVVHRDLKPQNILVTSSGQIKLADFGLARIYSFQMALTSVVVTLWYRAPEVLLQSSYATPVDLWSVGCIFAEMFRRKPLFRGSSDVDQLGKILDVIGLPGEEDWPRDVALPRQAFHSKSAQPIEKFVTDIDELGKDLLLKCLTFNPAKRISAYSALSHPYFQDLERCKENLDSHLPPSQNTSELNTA

B1 was tested, and the Kd [1] was 0.87 nM and the Kd [2] was 0.26 nM.

With B2 the Kd [2] was 0.73 nM, the “fold reduction in the strength of the interaction against wild-type p16INK4a” value [3] was over 1e+06 fold and the “fold higher rate of dissociation against wild-type p16INK4a” value [4] was about 10 fold.

In the case of B3, the Kd [2] is reported as 1.56 nM and the binding result [3] is reported as “binds”.

With B4 the Kd [1] was 2.56 nM and the Kd [2] was 0.28 nM.

In the case of B5, the Kd [2] is reported as 59.7 nM and the binding result [3] is reported as “binds”.

For B6, the Kd [5] was 92 nM.

Work on B7 yielded a Kd [6] of 24.9 nM and a Kd [7] of 10 nM.

B8 showed a Kd [6] of 151 nM and a Kd [7] of 14.9 nM.
